Test results as given in publication PMC7689096, “Cyclizing Painkillers: Development of Backbone-Cyclic TAPS Analogs” (Frontiers in Chemistry, 2020).
Numbered stars: 1 amine (or outer) side, 2 acyl side, 3 side chain; on linkers, the order of the positions; unused ones are H or OH. Bridge positions count the residues as written; N and C are the ends. Square brackets hold non-standard residues; d marks the D form. Ends that are not written are not given here. Peptide text beside a SMILES is read from it. N(6-aminohexyl)Gly = O=C(CN(CCCCCCN[*:3])[*:1])[*:2]; NGly(3-aminopropyl) = O=C(CN(CCCN[*:3])[*:1])[*:2]; CO = O=C([*:1])[*:2]; Sar = CNCC(=O)O

Columns and labels:
[1] = test system: Brush Border Membrane Vesicle (BBMV) enzymes; assay: in vitro; assay type: in vitro ADME; conditions: rat BBMV
Method: A few of the peptides from the library were selected for further evaluation. The TAPS c(2-6) representative MOP agonists, TAPS c(6-2) and TAPS c(4-2) were not evaluated for opioid receptor interaction, and two non-active cyclic peptides, TAPS c(3-2) and TAPS c(6-6), having a smaller and larger ring sizes, respectively. The backbone-cyclic peptide stability in the GI tract was evaluated using rat origin pooled Brush Border Membrane Vesicle (BBMV) enzymes and were compared to the stability of linear TAPS (Figure 6).
1. Mass spectrometry analyses … 1
2. Metabolic Stability in BBMVs … 1
2.1 Preparation of BBMVs … 1
2.2 Experimental protocol for BBMVs … 2
3.1 In vitro cell based model: Caco-2 cell culture permeability studies … 2 3.1.1 Growth and Maintenance of the Cells: … 2
3.1.2 Preparation of the Cells for Transport Studies: … 2
3.2 Experimental Protocol … 2
3.3 Data Analysis of In Vitro Studies … 3
3.4 Statistical Analysis of the In Vitro Studies … 3
3.5 Statistical Analysis of Pharmacodynamic Studies … 3
3.6 Analytical Methods for Compound Concentration … 3
5. Supplementary Figures … 6
6. Supplementary Tables … 7
1. Mass spectrometry analyses
Mass spectra were acquired on a LCQ Fleet Ion Trap mass spectrometer (Thermo Scientific) utilizing electrospray ionization. For high resolution mass spectrometry (HRMS) analyses, the spectra were recorded on an Agilent 6550 iFunnel Q-TOF LC/MS system.
2. […]

[2] = Caco-2 permeability assay; conditions: human
mice = assay: Mouse open field test (locomotor adverse effect); conditions: 5 mg/kg IP
Method: In the mouse open field test (OF test), the distance and speed the animal moves over a 5-min time period is recorded, giving an indication as to whether a medication administered affected its locomotor activity. TAPS c(2-6) (5 or 15 mg/kg) was administered via IP administration and compared to morphine (5 mg/kg) and vehicle (PBS).
Male ICR mice (Harlan, Israel) 7 weeks of age (25–27) were used for all pharmacodynamic experiments after 5-day acclimation to laboratory conditions. Animals were allowed free access to food (standard commercial, sterile rodent diet) and water throughout the experiments and kept in automatically controlled environmental conditions for temperature and humidity levels in a 12-h dark-light cycle.
Animals were placed in the OF apparatus for a period of 5 min. The apparatus utilizes computerized monitoring which measures the speed and distance the animal walks during the measurement period. […] Baseline measurements were taken 1 day before initiation of the experiments and again at 0.5, 1.5, 3, and 5 h post injection.

[3] = target: T1, δ (DOP, OPRD2) opioid receptor (Mus musculus, UniProt P32300); assay: DOP opioid receptor functional agonism in NG-10815 cells; assay type: cell-based, rat; conditions: At 10^−6 M, percent of control specific agonist response
T1 construct: NG-10815 cells which express significant endogenous levels of δ opioid receptors; host or cells: NG-10815 (NG108-15) mouse N18TG2 neuroblastoma x rat C6-BU-1 glioma hybrid cells
T1 sequence (P32300 whole entry): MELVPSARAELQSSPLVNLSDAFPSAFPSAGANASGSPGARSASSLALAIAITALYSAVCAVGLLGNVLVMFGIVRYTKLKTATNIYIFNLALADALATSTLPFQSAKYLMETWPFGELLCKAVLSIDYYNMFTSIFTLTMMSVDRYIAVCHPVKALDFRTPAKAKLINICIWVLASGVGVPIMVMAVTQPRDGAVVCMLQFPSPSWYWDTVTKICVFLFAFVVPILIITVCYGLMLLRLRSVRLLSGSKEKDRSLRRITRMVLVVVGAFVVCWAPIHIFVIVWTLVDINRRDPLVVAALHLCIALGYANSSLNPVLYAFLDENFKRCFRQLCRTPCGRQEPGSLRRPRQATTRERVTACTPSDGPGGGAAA
Method: (§1) Peptides were tested for μ (MOP, OPRM1) and δ (DOP, OPRD2) opioid receptor activation functional agonism and antagonism using CHO cells expressing human recombinant μ receptors and NG-10815 cells which express significant endogenous levels of δ opioid receptors. The cultures were incubated for 10 min at 37°C followed by impedance measurements of CHO cells and cAMP was assayed by the HTRF method using NG-10815 cells, according to CEREP standard assay protocols. The respective reference, non-peptide small molecules were tested concurrently with the TAPS analogs. The agonist compounds were: DPDPE (selective agonist of DOP receptor) and DAMGO (high MOP receptor specificity) and the antagonist compounds were: Naltrindole (selective DOP receptor antagonist) and CTOP (MOP receptor antagonist). […] The results are expressed as a percentage of respective control-specific response. […] These findings indicate that TAPS cyclic peptides are MOP selective full agonists. […] The cyclic TAPS peptide had lower activity than the linear parent TAPS peptide (90 ± 5%) – a finding that can be attributed to their restricted conformation relative to the flexible linear peptide conformation.
Evaluation of the Agonist Activity of Compounds at the Rat delta2 Receptor Endogenously Expressed in NG-10815 Cells, Determined by Measuring Their Effects on Impedance Modulation Using the CellKey (CDS) Detection Method
Cells are seeded onto 96-well plate coated with fibronectin at 2 × 10^5 cells/well in HBSS buffer (Invitrogen) + 20 mM HEPES (Invitrogen) with 0.1% BSA and allowed to equilibrate for 60 min at 37°C before the start of the experiment. Plates are placed onto the system and measurements are made at a temperature of 37°C. […] Impedance measurements are monitored for 10 min after ligand addition. The standard reference agonist is DPDPE, which is tested in each experiment at several concentrations to generate a concentration-response curve from which its EC50 value is calculated.
The respective reference, non-peptide small molecules were tested concurrently with the TAPS analogs; Agonist compounds DPDPE ([D-Pen2,D-Pen5]enkephalin), selective agonist of DOP receptor at 2 × 10^−9 M and DAMGO ([D-Ala2, N-MePhe4, Gly-ol] enkephalin), high MOP specificity at 2.5 × 10^−9 M; Antagonist compounds: naltrindole 7-(cyclopropylmethyl)-6,7-dehydro-4,5α-epoxy-3,14-dihydroxy-6,7-2′,3′-indolomorphinan hydrochloride, selective DOP antagonist, 5 × 10^−10 M and CTOP (D-Phe-Cys-Tyr-D-Trp-Orn-Thr-Pen-Thr-NH2), MOP antagonist at 3.4 × 10^−7 M. Depending on the assay volume and solvent tolerance, the stock solutions were diluted to [100×], [333×] or [1,000×] in 100% DMEM solvent, then either added directly or further diluted to [10×] or [5×] in H2O or Hank's balanced salt solution (HBSS) before addition to the assay well (final solvent concentration kept constant). The cultures were incubated for 10 min at 37°C followed by impedance measurements using cellular dielectric spectroscopy of CHO cells and cAMP was assayed by homogeneous time resolved fluorescence (HTRF) method using NG-10815 cells, according to CEREP standard assay protocols (https://euroscreenfast.com/assays/opioid-orl1-camp-fast-0360c; https://euroscreenfast.com/assays/opioid-op1-delta-camp-fast-0379c). […]

[4] = target: T1, δ (DOP, OPRD2) opioid receptor; assay: DOP opioid receptor functional antagonism in NG-10815 cells; assay type: cell-based, rat; conditions: Between 10^−9-10^−6 M, percent inhibition of control specific agonist response
Method: as §1
(§2) The respective reference, non-peptide small molecules were tested concurrently with the TAPS analogs; Agonist compounds DPDPE ([D-Pen2,D-Pen5]enkephalin), selective agonist of DOP receptor at 2 × 10^−9 M and DAMGO ([D-Ala2, N-MePhe4, Gly-ol] enkephalin), high MOP specificity at 2.5 × 10^−9 M; Antagonist compounds: naltrindole 7-(cyclopropylmethyl)-6,7-dehydro-4,5α-epoxy-3,14-dihydroxy-6,7-2′,3′-indolomorphinan hydrochloride, selective DOP antagonist, 5 × 10^−10 M and CTOP (D-Phe-Cys-Tyr-D-Trp-Orn-Thr-Pen-Thr-NH2), MOP antagonist at 3.4 × 10^−7 M. Depending on the assay volume and solvent tolerance, the stock solutions were diluted to [100×], [333×] or [1,000×] in 100% DMEM solvent, then either added directly or further diluted to [10×] or [5×] in H2O or Hank's balanced salt solution (HBSS) before addition to the assay well (final solvent concentration kept constant). The cultures were incubated for 10 min at 37°C followed by impedance measurements using cellular dielectric spectroscopy of CHO cells and cAMP was assayed by homogeneous time resolved fluorescence (HTRF) method using NG-10815 cells, according to CEREP standard assay protocols (https://euroscreenfast.com/assays/opioid-orl1-camp-fast-0360c; https://euroscreenfast.com/assays/opioid-op1-delta-camp-fast-0379c). The results (mean of three experiments) are expressed as a percent of control specific agonist response [(measured TAPS specific response/control specific agonist response) × 100] and as a percent inhibition of control specific agonist response [100 – (measured TAPS specific response/control specific agonist response) × 100] obtained in the presence of the TAPS compounds. Results showing a stimulation or an inhibition lower than 25% were considered not significant and mostly attributable to variability of the signal around the control level. Results showing a stimulation or an inhibition higher than 50% were considered to represent significant effects of the TAPS compounds.

[5] = target: T2, human recombinant μ (MOP, OPRM1) receptor (Homo sapiens, UniProt P35372); assay: MOP opioid receptor functional antagonism in CHO cells expressing human recombinant μ receptors; assay type: cell-based; conditions: Between 10^−9-10^−6 M, percent inhibition of control specific agonist response, values lower than 25% not significant
T2 construct: host or cells: CHO cells
T2 sequence (P35372 whole entry): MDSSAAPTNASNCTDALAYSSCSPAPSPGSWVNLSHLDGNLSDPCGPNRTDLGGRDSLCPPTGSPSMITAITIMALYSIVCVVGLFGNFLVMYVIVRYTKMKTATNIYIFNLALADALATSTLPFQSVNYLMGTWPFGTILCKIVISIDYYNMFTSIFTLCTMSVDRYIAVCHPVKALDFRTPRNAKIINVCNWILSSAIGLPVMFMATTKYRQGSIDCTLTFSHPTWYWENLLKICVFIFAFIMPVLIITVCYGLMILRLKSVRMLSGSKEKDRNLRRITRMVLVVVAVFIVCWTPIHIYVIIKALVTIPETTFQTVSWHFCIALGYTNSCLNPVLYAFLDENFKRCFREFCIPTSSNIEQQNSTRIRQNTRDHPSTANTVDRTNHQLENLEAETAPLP
Method: as §1, §2

[6] = target: T2, human recombinant μ (MOP, OPRM1) receptor; assay: MOP opioid receptor functional agonism in CHO cells expressing human recombinant μ receptors; assay type: cell-based; conditions: At 10^−6 M, percent of control specific agonist response, values lower than 25% not significant
Method: as §1
Evaluation of the Agonist Activity of Compounds at the Human μ Receptor in Transfected CHO Cells, Determined by Measuring Their Effects on cAMP modulation Using the HTRF Detection Method
Thereafter, the adenylyl cyclase activator NKH 477 is added at a final concentration of […]. Following 10 min incubation at 37°C, the cells are lysed and the fluorescence acceptor (D2-labeled cAMP) and fluorescence donor (anti-cAMP antibody labeled with europium cryptate) are added. After 60 min at room temperature, the fluorescence transfer is measured at lex = 337 nm and lem = 620 and 665 nm using a microplate reader (Rubystar, BMG). The cAMP concentration is determined by dividing the signal measured at 665 nm by that measured at 620 nm (ratio). The results are expressed as a percent of the control response to 1 μM DAMGO. The standard reference agonist is DAMGO, which is tested in each experiment at several concentrations to generate a concentration-response curve from which its EC50 value is calculated.
as §2, with “Results showing a stimulation or an inhibition lower than 25% were considered not significant and mostly attributable to variability of the signal around the control level. Results showing a stimulation or an inhibition higher than 50% were considered to represent significant effects of the TAPS compounds.” left out

| Compound | DOP agonist (%) [3] | DOP antagonist (%) [4] | MOP antagonist (%) [5] | MOP agonist (%) [6] | also measured |
| --- | --- | --- | --- | --- | --- |
| CN(CC(=O)O)C(=O)[C@H](Cc1ccccc1)NC(=O)[C@@H](CCCN=C(N)N)NC(=O)[C@@H](N)Cc1ccc(O)cc1 [Linear, Tyr-D-Arg-Phe-Sar] (H-Y[dR]F[Sar]-OH) | – | – | – | – | metabolised at 0.5 h ([1]; male, Wistar, kidney or brush border membranes, pH 7.4, after treatment for 30 min, read-out: peptide degraded by intestinal enzymes): > 80%; peptide fate with intestinal enzymes ([1]; after 60 min): decomposed |
| COCCc1ccc(OCC(O)CNC(C)C)cc1 (stereo not drawn) [metoprolol, reference compound] | – | – | – | – | Papp at 150 min [2]: 13 ×10⁻⁶ cm/s |
| CN1CC[C@]23c4c5ccc(O)c4O[C@H]2[C@@H](O)C=C[C@H]3[C@H]1C5 [morphine, reference compound] | – | – | – | – | locomotor effect (distance and speed of movement over 5 min) (mice): excitatory effect |
| TAPS c(3-3): backbone-cyclic TAPS analog, urea bridge; ring size 16 (YRF[NGly(3-aminopropyl)]-NH2; bridge 2-4 via CO; not fully specified (residue 2); also: urea bridge between the two N-alkyl chains) | 14% | 11% | 2% | 1% | – |
| TAPS c(6-6): backbone-cyclic TAPS analog, urea bridge; ring size 22 (YRF[N(6-aminohexyl)Gly]-NH2; bridge 2-4 via CO; not fully specified (residue 2); also: urea bridge between the two N-alkyl chains) | 1% | 6% | 3% | 21% | – |
